Measurements as given in PMC8809517, “Cofactor-independent RNA editing by a synthetic S-type PPR protein”.

Assays:
Experiment in all cases: high-throughput RNA pulldown from lysate on Ni-NTA beads; HRP: 50 mM Tris pH 8, 150 mM NaCl, 1 mM beta-mercaptoethanol, 50 ug/ml BSA, 3 ug/ml yeast RNA, 0.5% heparin; ITC and FP: Tris pH 8, 200 mM KCl, 5% glycerol; MST: 50 mM Tris pH 8, 200 mM NaCl, 1 mM DTT, BSA, heparin, 0.05% Tween 20
Settings in all cases: tags: N-terminal His-eGFP
[1] = target: T1, GFP-9S library array, motif 4 ND N98T;D124K (synthetic construct, N98T;D124K)
T1 chain: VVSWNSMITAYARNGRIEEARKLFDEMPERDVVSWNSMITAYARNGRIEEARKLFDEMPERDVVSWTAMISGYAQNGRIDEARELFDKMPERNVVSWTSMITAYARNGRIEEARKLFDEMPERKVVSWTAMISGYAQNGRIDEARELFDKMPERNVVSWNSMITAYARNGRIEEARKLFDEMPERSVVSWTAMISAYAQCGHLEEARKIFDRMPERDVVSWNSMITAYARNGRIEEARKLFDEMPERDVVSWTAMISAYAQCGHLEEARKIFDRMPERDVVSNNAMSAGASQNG

[2] = target: T2, GFP-9S library array, motif 4 ND N98M;D124S (synthetic construct, N98M;D124S)
T2 chain: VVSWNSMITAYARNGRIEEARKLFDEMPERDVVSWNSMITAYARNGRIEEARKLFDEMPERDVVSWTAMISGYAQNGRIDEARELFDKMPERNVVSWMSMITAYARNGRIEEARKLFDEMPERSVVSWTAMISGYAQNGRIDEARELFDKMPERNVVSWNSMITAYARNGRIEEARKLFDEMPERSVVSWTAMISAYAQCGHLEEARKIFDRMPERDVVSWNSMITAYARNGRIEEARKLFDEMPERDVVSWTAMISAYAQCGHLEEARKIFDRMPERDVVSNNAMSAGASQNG

[3] = target: T3, GFP-9S library array, motif 4 ND N98L;D124M (synthetic construct, N98L;D124M)
T3 chain: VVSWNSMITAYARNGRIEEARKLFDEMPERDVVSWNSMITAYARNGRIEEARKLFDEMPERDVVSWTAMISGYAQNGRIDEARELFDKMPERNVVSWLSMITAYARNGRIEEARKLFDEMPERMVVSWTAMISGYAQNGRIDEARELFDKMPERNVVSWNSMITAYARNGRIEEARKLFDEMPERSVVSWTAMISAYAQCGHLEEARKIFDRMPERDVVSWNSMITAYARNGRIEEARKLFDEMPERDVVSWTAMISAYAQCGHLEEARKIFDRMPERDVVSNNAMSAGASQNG

[4] = target: T4, GFP-9S library array, motif 4 ND N98D;D124Q (synthetic construct, N98D;D124Q)
T4 chain: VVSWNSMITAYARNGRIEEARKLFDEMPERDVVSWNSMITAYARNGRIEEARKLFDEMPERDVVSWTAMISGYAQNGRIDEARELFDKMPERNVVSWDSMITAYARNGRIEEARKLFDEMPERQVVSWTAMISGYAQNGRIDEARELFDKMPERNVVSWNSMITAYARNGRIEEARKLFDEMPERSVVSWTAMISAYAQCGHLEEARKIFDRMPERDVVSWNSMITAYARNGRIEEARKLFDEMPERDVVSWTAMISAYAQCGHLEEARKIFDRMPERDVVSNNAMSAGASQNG

[5] = target: T5, GFP-9S library array, motif 4 ND N98Q;D124L (synthetic construct, N98Q;D124L)
T5 chain: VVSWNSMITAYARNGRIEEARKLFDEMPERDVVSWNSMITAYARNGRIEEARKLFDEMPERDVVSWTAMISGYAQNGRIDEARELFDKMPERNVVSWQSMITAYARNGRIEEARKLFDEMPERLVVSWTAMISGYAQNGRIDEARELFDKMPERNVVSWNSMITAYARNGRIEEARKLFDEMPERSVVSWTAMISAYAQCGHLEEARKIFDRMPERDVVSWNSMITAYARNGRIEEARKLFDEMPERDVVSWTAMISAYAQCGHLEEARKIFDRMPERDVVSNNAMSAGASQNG

Binder AUUAGACGUGA (ssRNA) [Cy5-rpoA-G] has a Kd ([1]; label: 5' Cy5) of 131 nM, a Kd ([2]; label: 5' Cy5) of 73.1 nM and a Kd ([3]; label: 5' Cy5) of 122 nM. For the same binder, the Kd ([4]; label: 5' Cy5) was 270 nM and the Kd ([5]; label: 5' Cy5) was 84.1 nM.

AUUAUACGUGA (ssRNA) [IR-rpoA-U] showed a Kd ([1]; label: 5' IRDye 800CW) of 81.9 nM, a Kd ([2]; label: 5' IRDye 800CW) of 48.4 nM and a Kd ([3]; label: 5' IRDye 800CW) of 176 nM. The Kd ([4]; label: 5' IRDye 800CW) was 803 nM and the Kd ([5]; label: 5' IRDye 800CW) was 261 nM.

Work on AUUAAACGUGA (ssRNA) [IR-rpoA-A] yielded a Kd ([1]; label: 5' IRDye 800CW) of 53.4 nM, a Kd ([2]; label: 5' IRDye 800CW) of 65.9 nM and a Kd ([3]; label: 5' IRDye 800CW) of 381 nM. For the same binder, the Kd ([4]; label: 5' IRDye 800CW) was 973 nM and the Kd ([5]; label: 5' IRDye 800CW) was 155 nM.

Work on AUUACACGUGA (ssRNA) [Cy5-rpoA] yielded a Kd ([1]; label: 5' Cy5) of 131 nM, a Kd ([2]; label: 5' Cy5) of 50.4 nM and a Kd ([3]; label: 5' Cy5) of 104 nM. For the same binder, the Kd ([4]; label: 5' Cy5) was 369 nM and the Kd ([5]; label: 5' Cy5) was 122 nM.
